For data set [1], the target named is T1, human corin mutant R801A, Q9Y5Q5.
T1 chain: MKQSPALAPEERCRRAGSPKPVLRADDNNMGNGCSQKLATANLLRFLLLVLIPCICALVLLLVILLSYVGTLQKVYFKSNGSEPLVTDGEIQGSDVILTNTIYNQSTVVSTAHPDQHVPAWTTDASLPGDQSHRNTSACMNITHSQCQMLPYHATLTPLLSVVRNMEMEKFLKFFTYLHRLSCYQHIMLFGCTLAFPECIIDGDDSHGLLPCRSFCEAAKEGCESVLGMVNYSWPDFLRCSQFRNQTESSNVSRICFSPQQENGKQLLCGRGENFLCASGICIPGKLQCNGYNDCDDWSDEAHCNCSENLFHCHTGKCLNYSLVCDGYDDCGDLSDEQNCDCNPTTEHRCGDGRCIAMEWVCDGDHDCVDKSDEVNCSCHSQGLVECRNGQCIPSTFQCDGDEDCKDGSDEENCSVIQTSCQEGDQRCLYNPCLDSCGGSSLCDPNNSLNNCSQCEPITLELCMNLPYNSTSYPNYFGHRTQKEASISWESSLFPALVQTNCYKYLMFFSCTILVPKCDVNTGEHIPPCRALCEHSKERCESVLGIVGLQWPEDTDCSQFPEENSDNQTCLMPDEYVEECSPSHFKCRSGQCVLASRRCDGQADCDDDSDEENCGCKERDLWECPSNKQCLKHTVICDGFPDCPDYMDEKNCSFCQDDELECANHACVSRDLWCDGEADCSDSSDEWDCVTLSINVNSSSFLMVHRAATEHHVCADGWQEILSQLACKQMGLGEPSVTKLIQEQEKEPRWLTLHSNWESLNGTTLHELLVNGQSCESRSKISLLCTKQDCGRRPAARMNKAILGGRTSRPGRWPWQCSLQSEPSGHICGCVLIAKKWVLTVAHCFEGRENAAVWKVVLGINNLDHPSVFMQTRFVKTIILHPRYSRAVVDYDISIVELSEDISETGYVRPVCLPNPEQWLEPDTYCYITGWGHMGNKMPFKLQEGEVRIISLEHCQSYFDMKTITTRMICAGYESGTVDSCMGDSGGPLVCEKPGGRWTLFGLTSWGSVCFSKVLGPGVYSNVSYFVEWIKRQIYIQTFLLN

In data set [2] the target is T2, human corin variant T555I/Q568P, Q9Y5Q5.
T2 chain: T1 chain with T555I, Q568P, A801R

Data set [3] addresses human corin mutant R539C (human) (UniProt Q9Y5Q5). In words: cell-based or functional assay.
Data set [4] addresses human corin mutant K317E (human) (UniProt Q9Y5Q5). In words: cell-based or functional assay.
In data set [5] the target is human corin mutant S472G (human) (UniProt Q9Y5Q5). In words: cell-based or functional assay.

Numbering of substitutions follows the chain as printed.

This is an account of results in patent US20160058848A1.

B1: recombinant human proprotein convertase subtilisin/kexin-6 (PCSK6) with a C-terminal flag tag (protein)
chain: QVRSDPQALYFNDPIWSNMWYLHCGDKNSRCRSEMNVQAAWKRGYTGKNVVVTILDDGIERNHPDLAPNYDSYASYDVNGNDYDPSPRYDASNENKHGTRCAGEVAASANNSYCIVGIAYNAKIGGIRMLDGDVTDVVEAKSLGIRPNYIDIYSASWGPDDDGKTVDGPGRLAKQAFEYGIKKGRQGLGSIFVWASGNGGREGDYCSCDGYTNSIYTISVSSATENGYKPWYLEECASTLATTYSSGAFYERKIVTTDLRQRCTDGHTGTSVSAPMVAGIIALALEANSQLTWRDVQHLLVKTSRPAHLKASDWKVNGAGHKVSHFYGFGLVDAEALVVEAKKWTAVPSQHMCVAASDKRPRSIPLVQVLRTTALTSACAEHSDQRVVYLEHVVVRTSISHPRRGDLQIYLVSPSGTKSQLLAKRLLDLSNEGFTNWEFMTVHCWGEKAEGQWTLEIQDLPSQVRNPEKQGKLKEWSLILYGTAEHPYHTFSAHQSRSRMLELSAPELEPPKAALSPSQVEVPEDEEDYTAQSTPGSANILQTSVCHPECGDKGCDGPNADQCLNCVHFSLGSVKTSRKCVSVCPLGYFGDTAARRCRRCHKGCETCSSRAATQCLSCRRGFYHHQEMNTCVTLCPAGFYADESQKNCLKCHPSCKKCVDEPEKCTVCKEGFSLARGSCIPDCEPGTYFDSELIRCGECHHTCGTCVGPGREECIHCAKNFHFHDWKCVPACGEGFYPEEMPGLPHKVCRRCDENCLSCAGSSRNCSRCKTGFTQLGTSCITNHTCSNADETFCEMVKSNRLCERKLFIQFCCRTCLLAG
As for B1, the “PCSK6-mediated activation cleavage (Western blot, densitometry)” value in data set [1] is “In controls, no activation cleavage was detected in mutant R801A lacking the cleavage site”; in data set [2], “PCSK6-mediated activation cleavage was detected in corin WT and variants T555I or Q568P, but not variant T555I/Q568P”. The reduction in PCSK6-mediated corin activation compared with WT corin (Western blot, densitometry) (% reduction vs WT corin) in data set [3] came to 62; in data set [4] it was 39; in data set [5], 99.
